Experiment [1] deals with T1, FcRL4, overexpressed on 3T3 cells (UniProt Q96PJ5 20-515, limits assumed).
T1 construct: whole, on cells
T1 sequence (looked up): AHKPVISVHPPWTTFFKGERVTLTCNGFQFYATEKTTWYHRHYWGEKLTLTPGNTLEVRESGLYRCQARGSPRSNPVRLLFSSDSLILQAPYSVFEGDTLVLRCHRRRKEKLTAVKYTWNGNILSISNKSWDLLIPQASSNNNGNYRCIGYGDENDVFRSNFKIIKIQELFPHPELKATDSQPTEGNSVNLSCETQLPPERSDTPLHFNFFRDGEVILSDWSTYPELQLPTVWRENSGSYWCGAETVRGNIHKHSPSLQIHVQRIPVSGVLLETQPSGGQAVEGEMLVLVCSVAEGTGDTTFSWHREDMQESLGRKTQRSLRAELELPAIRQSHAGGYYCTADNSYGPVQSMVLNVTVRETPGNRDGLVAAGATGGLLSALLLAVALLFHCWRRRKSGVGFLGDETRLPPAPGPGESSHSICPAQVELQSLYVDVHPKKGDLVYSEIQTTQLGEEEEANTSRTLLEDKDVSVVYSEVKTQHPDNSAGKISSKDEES
The experiment in a line: phage clone on 3T3-FcRL4 cells.

Experiment [2] deals with T2, FcRL6, overexpressed on 3T3 cells (UniProt Q6DN72 20-434, limits assumed).
T2 construct: whole, on cells
T2 sequence (looked up): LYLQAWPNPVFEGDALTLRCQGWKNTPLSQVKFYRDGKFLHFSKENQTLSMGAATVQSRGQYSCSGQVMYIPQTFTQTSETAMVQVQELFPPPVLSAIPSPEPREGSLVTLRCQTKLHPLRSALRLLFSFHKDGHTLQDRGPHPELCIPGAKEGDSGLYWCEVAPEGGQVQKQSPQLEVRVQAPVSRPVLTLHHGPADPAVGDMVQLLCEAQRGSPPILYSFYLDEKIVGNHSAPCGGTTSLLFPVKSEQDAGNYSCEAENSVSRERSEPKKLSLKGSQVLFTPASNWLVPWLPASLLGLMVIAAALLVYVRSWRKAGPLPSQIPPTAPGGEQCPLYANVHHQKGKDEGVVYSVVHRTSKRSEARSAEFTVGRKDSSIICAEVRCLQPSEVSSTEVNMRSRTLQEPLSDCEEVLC
The experiment in a line: phage clone on 3T3-FcRL6 cells.

B1: ET200-113 (scFv)
scFv: QSVVTQPPSVSAAPGQKVTISCSGSSSNIGNNYVSWYQQLPGTAPKLLIYDNNKRPSGIPDRFSGSKSGTSATLGITGLQTGDEADYYCGTWDSSLSAAYVFGTGTKVTVLGSRGGGGSGGGGSGGGGSLEMAQVQLVQSGAEVKKPGASVKVSCKASGYSFTSYTISWVRQAPGQGLEWMGWVSTYNGLRNYAQNLQGRVTMTTDTLTTTAYMELRSLRSDDTAVYYCVREGSPDYGDFAAFDYWGQGTLVTVSSTSGQAGQHHHHHHGAYPYDVPDYAS
notes: screened as phage clone; entry is VL-linker-VH-His tag-HA tag
Consider B1, for which the binding result in experiment [1] and in experiment [2] was “no binding” each time.

B2: ET200-005 (scFv)
scFv: QPVLTQPPSVSVVPGKTARITCGGKNIGSKSVHWYQQKPGQAPVVVIHYDSDRPSGIPERFSGSNSGNTATLTISRVEAGDEADYYCQVWDSSSDHPYVFGTGTKVTVLGSRGGGGSGGGGSGGGGSLEMAQVQLVQSGAEVKKPGASVKVSCKASGYTFTNYGISWVRQAPGQGLEWMGWISAYNGNTNYAHKLQGRVTMTTDTSTSTANMELRSLRPDDTAVYYCARSYFGSHDYWGQGTLVTVSSTSGQAGQHHHHHHGAYPYDVPDYAS
notes: as for B1
B2: the binding result in experiment [1] and in experiment [2] was “no binding” throughout.

B3: ET200-123 (scFv)
scFv: QAVLTQPPSASGTPGQRVTISCSGSSSNIGSNTVNWYQQLPGTAPKLLMYNNDQRPSGVPDRFSGSKSGTSASLAISGLQSEDEADYYCAAWDDSLNGYVFGPGTKVTVLGSRGGGGSGGGGSGGGGSLEMAQVQLVESGAEVKKPGASVKVSCKASGYTFTSYGISWVRQAPGQGLEWMGWISAYNGNTNYAQKLQGRVTMTTDTSTSTAYMELRSLRSDDTAVYYCARDLSRGANPHYYYYYGMDVWGQGTTVTVSSTSGQAGQHHHHHHGAYPYDVPDYAS
notes: as for B1
Turning to B3, the binding result in experiment [1] and in experiment [2] was “no binding” in each case.

B4: ET200-118 (scFv)
scFv: QAVLTQPASVSGSPGQSITISCTGTSSDVGGYNYVSWYQQHPGKAPKLMIYEVSNRPSGVSNRFSGSKSGNTASLTISGLQAEDEADYYCSSYTSSSTPYVFGAGTKVTVLGSRGGGGSGGGGSGGGGSLEMAEVQLVESGGGLVQPGRSLRLSCAASGFTFDDYAMHWVRQAPGKGLEWVSGISWNSGSIGYADSVKGRFTISRDNAKNSLYLQMNSLRAEDTALYYCAKARWTAVASDHHFDYWGQGTLVTVSSTSGQAGQHHHHHHGAYPYDVPDYAS
notes: as for B1
For the molecule B4, the binding result in experiment [1] and in experiment [2] was “no binding” in each case.

B5: ET200-124 (scFv)
scFv: SYVLTQPPSVSVAPGKTARISCGGNDIGSKSVFWYQQRPGQAPVLVVYDDSDRPSGLPERFSGFNSGNTATLTISRVEAGDEADYYCQVWDSSSDHYVFGTGTKVTVLGSRGGGGSGGGGSGGGGSLEMAQVQLVESGGGLVQPGRSLRLSCAASGFTFDDYAMHWVRQAPGKGLEWVSGISWNSGSIGYADSVKGRFTISRDNAKNSLYLQMNSLRAEDTALYYCAKDITYGSGSYGAFDIWGQGTMVTVSSTSGQAGQHHHHHHGAYPYDVPDYAS
notes: as for B1
Turning to B5, the binding result in experiment [1] and in experiment [2] was “no binding” in each case.

B6: ET200-010 (scFv)
scFv: QSALTQPASVSGSPGQSITISCTGTSSDVGGYNSVSWYQQHPGKAPRLMIYDVSNRPSGVSNRFSGSKSGNTASLTISGLQAEDEADYYCSSYTSSSTPLVFGTGTKVTVLGSRGGGGSGGGGSGGGGSLEMAQVQLVQSGAEVKKPGASVKVSCKASGYTFTSYGISWVRQAPGQGLEWMGWISAYNGNTNYAQKLQGRVTMTTDTSTSTAYMELRSLRSDDTAVYYCARGAVAYHDWGQGTLVTVSSTSGQAGQHHHHHHGAYPYDVPDYAS
notes: as for B1
With B6, the binding result in experiment [1] and in experiment [2] was “no binding” throughout.

B7: ET200-116 (scFv)
scFv: QPVLTQPPSVSVSPGQTAAIPCSGDKLGDKFASWYQQKPGQSPVLVIYQDTKRPSGIPERFSGSNSGNTATLTISGTQAMDEADYYCQTWASGIVVFGGGTKLTVLGSRGGGGSGGGGSGGGGSLEMAQVQLQQSGPGLVKPSQTLSLTCAISGDSVSSNSAAWNWIRQSPSRGLEWLGRTYYRSKWYNDYAVSVKSRITINPDTSKNQFSLQLNSVTPEDTAVYYCARERSGWKGFDYWGQGTLVTVSSTSGQAGQHHHHHHGAYPYDVPDYAS
notes: as for B1
For the molecule B7, the binding result in experiment [1] and in experiment [2] was “no binding” each time.

B8: ET200-008 (scFv)
scFv: QSALTQPASVSGSPGQSITISCTGTSSDVGGYNYVSWYQQHPGKAPKLMIYDVSNRPSGVSNRFSGSKSGNTASLTISGLQAEDEADYYCSSYTSSSTSKVFGGGTKLTVLGSRGGGGSGGGGSGGGGSLEMAEVQLVESGGGVVRPGGSLRLSCAASGFTFGDYGMSWVRQAPGKGLEWVSGINWNGGSTGYADSVKGRFTISRDNAKNSLYLQMNSLRAEDTAVYYCARSKYNFHVYYDYWGQGTLVTVSSTSGQAGQHHHHHHGAYPYDVPDYAS
notes: as for B1
Consider B8, for which the binding result in experiment [1] and in experiment [2] was “no binding” in each case.

B9: ET200-009 (scFv)
scFv: QSVLTQPPSASGTPGQTVTISCSGSNSNIGSNYVYWYQQLPGTAPKLLIYRNNQRPSGVPDRFSGSKSGTSASLAISGLRSEDEADYYCAAWDDSLSAYVFGTGTKVTVLGSRGGGGSGGGGSGGGGSLEMAQVQLVQSGAEVKKPGASVKVSCKASGYTFTSYGISWVRQAPGQGLEWMGWISAYNGNTNYAQKLQGRVTMTTDTSTSTAYMELRSLRSDDTAVYYCARSSGNMVSWKDMWGQGTLVTVSSTSGQAGQHHHHHHGAYPYDVPDYAS
notes: as for B1
For B9, the binding result in experiment [1] and in experiment [2] was “no binding” throughout.

B10: ET200-121 (scFv)
scFv: QSVLTQPPSVSGAPGQRVTVSCTGSRSNIGAGYDVHWYQQLPGTAPKLLIYGNSNRPPGVPDRFSGSKSGTSASLVITGLQAEDAADYYCQSYDNTVRESPYVFGTGTKVTVLGSRGGGGSGGGGSGGGGSLEMAEVQLVQSGAEVKKPGASVKVSCKVSGYTLTELSMHWVRQAPGKGLEWMGGFDPEDGETIYAQKFQGRVTMTEDTSTDTAYMELSSLRSEDTAVYYCATESNLVSRHYYYYGMDVWGQGTTVTVSSTSGQAGQHHHHHHGAYPYDVPDYAS
notes: as for B1
With B10, the binding result in experiment [1] and in experiment [2] was “no binding” each time.

B11: ET200-125 (scFv)
scFv: NFMLTQPHAVSESPGKTVTISCTRSSGSIASNYVQWYQQRPGSSPRTVIYEDNQRPSGVPGRFSGSIDSSSNSASLTISGLKTEDEADYYCQSYDSTSVLFGGGTKLTVLGSRGGGGSGGGGSGGGGSLEMAEVQLVQSGAEVKKPGSSVKVSCKASGGTFSSNSLSWVRQAPGQGLEWMGRIFPILGITNYAQKFQGRVTITADKSTSTAYMELSSLRSEDTAVYYCARGNYQWYDAFDIWGQGTMVTVSSTSGQAGQHHHHHHGAYPYDVPDYAS
notes: as for B1
B11: the binding result in experiment [1] and in experiment [2] was “no binding” throughout.

B12: ET200-115 (scFv)
scFv: QSVLTQPPSVSGAPGQRVTISCTGSSSNIGARYDVHWYQQLPGTAPRLLISANYDRPSGVPDRFSGSKSGTSASLAITGLQAEDEADYYCQSYDSSVSAWVFGGGTKVTVLGSRGGGGSGGGGSGGGGSLEMAEVQLVQSGAEVKEPGASVRISCQASGYNFISYYMHWVRQAPGQGLEWMGTINPGSGETDYSQKLQGRVTMTRDPSTGTFDMGLSSLTSGDTAVYYCATGLIRGASDAFNIWGRGTMVTVSSTSGQAGQHHHHHHGAYPYDVPDYAS
notes: as for B1
B12: the binding result in experiment [1] and in experiment [2] was “no binding” throughout.

These data come from patent US20210388081A1 (Memorial Sloan Kettering, published 2021).
